The source of these data is publication PMC5389854, “Functional analysis of the GmESR1 gene associated with soybean regeneration”.

The series deals with GmESR1 (Glycine max cv. Dongnong 50, UniProt K7K6B8 5-391). The series can be described thus: EMSA; EMSA as in Kass et al. (2000); buffer, salt, pH and temperature not stated. The note with it: protein: recombinant; tags: His (pET-29b); label: digoxigenin-ddUTP; blunt.
Sequence of GmESR1 (K7K6B8 entry or part of it): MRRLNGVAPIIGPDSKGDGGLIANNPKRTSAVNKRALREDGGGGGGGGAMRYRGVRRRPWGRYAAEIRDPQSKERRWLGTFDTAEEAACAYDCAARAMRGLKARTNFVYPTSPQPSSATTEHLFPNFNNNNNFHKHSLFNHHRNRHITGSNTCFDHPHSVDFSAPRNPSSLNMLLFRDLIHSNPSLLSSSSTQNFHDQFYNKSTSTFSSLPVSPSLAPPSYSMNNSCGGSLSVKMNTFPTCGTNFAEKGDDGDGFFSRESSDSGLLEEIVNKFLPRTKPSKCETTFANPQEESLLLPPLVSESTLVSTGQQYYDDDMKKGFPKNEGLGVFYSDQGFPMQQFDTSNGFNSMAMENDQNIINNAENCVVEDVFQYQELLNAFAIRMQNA

B1: mGCC-box probe (dsDNA)
DNA 1: ATCCATAAGATCCTCCACTAAAATAAGACCGATCAA
DNA 2: TTGATCGGTCTTATTTTAGTGGAGGATCTTATGGAT
Consider B1, for which the binding result is given as “no binding”.
